Reference: paper PMC3696906

Columns and labels:
[1] = molecular target: human CD28-Fc (human, UniProt P10747 19-152); assay: filter binding?
[2] = molecular target: T1, murine CD28-Fc (mouse, UniProt P31041 20-150); assay: filter binding
T1 sequence: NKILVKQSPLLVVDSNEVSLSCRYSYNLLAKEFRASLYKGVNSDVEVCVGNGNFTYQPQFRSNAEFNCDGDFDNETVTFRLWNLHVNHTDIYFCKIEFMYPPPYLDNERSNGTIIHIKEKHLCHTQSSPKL

Chain of human CD28-Fc (P10747 19-152): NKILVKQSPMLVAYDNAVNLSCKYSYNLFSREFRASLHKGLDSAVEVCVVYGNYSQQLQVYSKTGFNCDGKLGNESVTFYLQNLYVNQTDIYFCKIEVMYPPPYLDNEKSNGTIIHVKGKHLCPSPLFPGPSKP

B1: CD28Apt7 (monomer) (structured_RNA)
RNA: GGGAGAGAGGAAGAGGGAUGGGGAUUAGACCAUAGGCUCCCAACCCCCAUAACCCAGAGGUCGAUAGUACUGGAUCCCCCC
modifications: 2'-fluoropyrimidine (2'-F C and U)
binding result [1]: no binding | Kd [2]: 60 nM
